How the values were obtained:
[1] = molecular target: PD-L1 protein on 4T1 cells (programmed cell death ligand-1) (mouse (endogenous in 4T1)) (UniProt Q9EP73); experiment: radioligand binding; competition on 4T1 cells adhered to 96-well plates, 37 °C, 1 h; [18F]AlF-NOTA-iPD-L1 constant at 1 ng/20 kBq; unlabeled peptides 10 to 0.00001 mM; washed with pH 7.4 buffer (0.1% BSA, 25 mM Tris-HCl, 1 mM CaCl2, 120 mM NaCl); corrected for non-specific binding with …; n = 3
[2] = molecular target: PD-L1 protein on 4T1 cells (programmed cell death ligand-1) (mouse (endogenous in 4T1)) (UniProt Q9EP73)

Sequence of UniProt Q9EP73 (Q9EP73 19-290): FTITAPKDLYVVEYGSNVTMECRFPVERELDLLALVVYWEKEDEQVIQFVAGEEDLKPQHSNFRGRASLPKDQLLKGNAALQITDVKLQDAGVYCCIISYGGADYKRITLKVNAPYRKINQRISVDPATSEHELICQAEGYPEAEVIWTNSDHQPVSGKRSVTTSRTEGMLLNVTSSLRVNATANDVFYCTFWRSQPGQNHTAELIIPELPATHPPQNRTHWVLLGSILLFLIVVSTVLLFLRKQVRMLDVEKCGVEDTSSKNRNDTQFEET

Row | Substance | IC50 [1] [nM] | tumor uptake at 1 h in mice with 4T1 tumors that received a blocking dose of cold iPD-L1 30 min before (% ID/g) [2] [% ID/g] | tumor uptake in mice with induced PD-L1-positive 4T1 tumors, 1, 2 and 3 h after injection (% ID/g) [2] [% ID/g]
1 | AlCl-NOTA-iPD-L1 (peptide) | 9.27 | – | –
2 | WL12 (peptide) | 6.08 | – | –
3 | [18F]AlF-NOTA-iPD-L1 (peptide) | – | 1.81 | 6.54
